Measured values: patent US20230212319A1, “NOVEL ANTIGEN BINDING DOMAINS AND SYNTHETIC ANTIGEN RECEPTORS INCORPORATING THE SAME” (University of Southern California, priority 2020, published 2023)

B1: 22161 (protein)
chain: MALPVTALLLPLALLLHAARPACEVQLLESGGGLIQPGGSLRLSCAASGFTFSSHAMTWVRQAPGKGLEWVSAISGSGDYTHYADSVKGRFTISRDNSKNTVYLQMNSLRAEDSAVYYCAKDEDGGSLLGHRGQGTLVTVSSGTGGGGSGGGGSGGGGSEFDIQMTQSPSSLSASVGDRVTITCKASDHINNWLAWYQQKPGQAPKLLIYGATTLETGVPSRFSGSGSGTDYTLTISSLQPEDFATYYCQQSWNTPWTFGQGTKLEIKRLEDLKNVFPPEVAVFEPSEAEISHTQKATLVCLATGFYPDHVELSWWVNGKEVHSGVCTDPQPLKEQPALNDSRYCLSSRLRVSATFWQNPRNHFRCQVQFYGLSENDEWTQDRAKPVTQIVSAEAWGRADCGFTSESYQQGVLSATILYEILLGKATLYAVLVSALVLMAMVKRKDSRGRAKRSGSGATNFSLLKQAGDVEENPGPTSATMDWIWRILFLVGAATGAHSGPEVQLVESGGGLVQAGGSLRLSCAASGRTFSMGWFRQAPGKEREFVAAITYSGGSPYYADSVKGRFTISRDNAKNTVYLQMNSLKPEDTAVYYCAANPTYGSDWNAENWGQGTQVTVSSGSGGGGSGGGGSGGGGSFEQVQLQQPGAELVKPGASVKMSCKASGYAFSSYWINWMKQKPGQGLEWIGQIYPGDGDTNYNGKFKGRATLTADTSSSTAYMQLSSLTSEDSAVYFCARSITTVVGCAMDYWGQGTSVTVSSTRIQNPDPAVYQLRDSKSSDKSVCLFTDFDSQTNVSQSKDSDVYITDKCVLDMRSMDFKSNSAVAWSNKSDFACANAFNNSIIPEDTFFPSPESSCDVKLVEKSFETDTNLNFQNLSVIGFRILLLKVAGFNLLMTLRLWSSRAKRSGSGVKQTLNFDLLKLAGDVESNPGPSRGHMTEYKPTVRLATRDDVPRAVRTLAAAFADYPATRHTVDPDRHIERVTELQELFLTRVGLDIGKVWVADDGAAVAVWTTPESVEAGAVFAEIGPRMAELSGSRLAAQQQMEGLLAPHRPKEPAWFLATVGVSPDHQGKGLGSAVVLPGVEAAERAGVPAFLETSAPRNLPFYERLGFTVTADVEVPEGPRTWCMTRKPGA
B2: 22115 (protein)
chain: MALPVTALLLPLALLLHAARPQVQLVESGGGLVQPGGSLRLSCAASGFTFTNHAMSWVRQAPGKGLELVSSISGNGRTTYYADSVKGRFTISRDISKNTLDLQMNSLRAEDTAVYYCAKDGGETLVDSRGQGTLVTVSSLEDLKNVFPPEVAVFEPSKAEIAHTQKATLVCLATGFYPDHVELSWWVNGKEVHSGVCTDPQPLKEQPALNDSRYCLSSRLRVSATFWQNPRNHFRCQVQFYGLSENDEWTQDRAKPVTQIVSAEAWGRADCGITSASYHQGVLSATILYEILLGKATLYAVLVSALVLMAMVKRKDSRGRAKRSGSGATNFSLLKQAGDVEENPGPTSTMALPVTALLLPLALLLHAARPQVQLVESGGGLVQPGGSLRLSCAASGFTFTNHAMSWVRQAPGKGLELVSSISGNGRTTYYADSVKGRFTISRDISKNTLDLQMNSLRAEDTAVYYCAKDGGETLVDSRGQGTLVTVSSLESGGGGSFEQVQLQQPGAELVKPGASVKMSCKASGYAFSSYWINWMKQKPGQGLEWIGQIYPGDGDTNYNGKFKGRATLTADTSSSTAYMQLSSLTSEDSAVYFCARSITTVVGCAMDYWGQGTSVTVSSTRIQNPDPAVYQLRDSKSSDKSVCLFTDFDSQTNVSQSKDSDVYITDKCVLDMRSMDFKSNSAVAWSNKSDFACANAFNNSIIPEDTFFPSSDVPCDVKLVEKSFETDTNLNFQNLSVIGFRILLLKVAGFNLLMTLRLWSSRAKRSGSGVKQTLNFDLLKLAGDVESNPGPSRGHMTEYKPTVRLATRDDVPRAVRTLAAAFADYPATRHTVDPDRHIERVTELQELFLTRVGLDIGKVWVADDGAAVAVWTTPESVEAGAVFAEIGPRMAELSGSRLAAQQQMEGLLAPHRPKEPAWFLATVGVSPDHQGKGLGSAVVLPGVEAAERAGVPAFLETSAPRNLPFYERLGFTVTADVEVPEGPRTWCMTRKPGA
B3: 22139 (protein)
chain: MALPVTALLLPLALLLHAARPACEVQLLESGGGLIQPGGSLRLSCAASGFTFSSHAMTWVRQAPGKGLEWVSAISGSGDYTHYADSVKGRFTISRDNSKNTVYLQMNSLRAEDSAVYYCAKDEDGGSLLGHRGQGTLVTVSSGTGGGGSGGGGSGGGGSEFDIQMTQSPSSLSASVGDRVTITCKASDHINNWLAWYQQKPGQAPKLLIYGATTLETGVPSRFSGSGSGTDYTLTISSLQPEDFATYYCQQSWNTPWTFGQGTKLEIKRLEADVSPKPTIFLPSIAETKLQKAGTYLCLLEKFFPDVIKIHWQEKKSNTILGSQEGNTMKTNDTYMKFSWLTVPEKSLDKEHRCIVRHENNKNGVDQEIIFPPIKTDVITMDPKDNCSKDANDTLLLQLTNTSAYYMYLLLLLKSVVYFAIITCCLLRRTAFCCNGEKSRAKRSGSGATNFSLLKQAGDVEENPGPTSMDWIWRILFLVGAATGAHSGPQVQLQESGGGLAQAGGSLRLSCAASGRTFSMGWFRQAPGKEREFVAAITYSGGSPYYASSVRGRFTISRDNAKNTVYLQMNSLKPEDTAVYYCAANPTYGSDWNAENWGQGTQVTVSSGSGGGGSGGGGSGGGGSFEQVQLQQPGAELVKPGASVKMSCKASGYAFSSYWINWMKQKPGQGLEWIGQIYPGDGDTNYNGKFKGRATLTADTSSSTAYMQLSSLTSEDSAVYFCARSITTVVGCAMDYWGQGTSVTVSSTRPHTKPSVFVMKNGTNVACLVKEFYPKDIRINLVSSKKITEFDPAIVISPSGKYNAVKLGKYEDSNSVTCSVQHDNKTVHSTDFEVKTDSTDHVKPKETENTKQPSKSCHKPKAIVHTEKVNMMSLTVLGLRMLFAKTVAVNFLLTAKLFFLRAKRSGSGVKQTLNFDLLKLAGDVESNPGPSRGHMTEYKPTVRLATRDDVPRAVRTLAAAFADYPATRHTVDPDRHIERVTELQELFLTRVGLDIGKVWVADDGAAVAVWTTPESVEAGAVFAEIGPRMAELSGSRLAAQQQMEGLLAPHRPKEPAWFLATVGVSPDHQGKGLGSAVVLPGVEAAERAGVPAFLETSAPRNLPFYERLGFTVTADVEVPEGPRTWCMTRKPGA
B4: 22105 (protein)
chain: MALPVTALLLPLALLLHAARPDIQMTQSPSSLSASVGDRVTITCKASDHINNWLAWYQQKPGQAPKLLIYGATTLETGVPSRFSGSGSGTDYTLTISSLQPEDFATYYCQQSWNTPWTFGQGTKLEIKRLEDLKNVFPPEVAVFEPSEAEISHTQKATLVCLATGFYPDHVELSWWVNGKEVHSGVCTDPQPLKEQPALNDSRYCLSSRLRVSATFWQNPRNHFRCQVQFYGLSENDEWTQDRAKPVTQIVSAEAWGRADCGFTSESYQQGVLSATILYEILLGKATLYAVLVSALVLMAMVKRKDSRGRAKRSGSGATNFSLLKQAGDVEENPGPTSATMDWIWRILFLVGAATGAHSGPQVQLQESGGGLAQAGGSLRLSCAASGRTFSMGWFRQAPGKEREFVAAITYSGGSPYYASSVRGRFTISRDNAKNTVYLQMNSLKPEDTAVYYCAANPTYGSDWNAENWGQGTQVTVSSGSGGGGSGGGGSGGGGSFEQVQLQQPGAELVKPGASVKMSCKASGYAFSSYWINWMKQKPGQGLEWIGQIYPGDGDTNYNGKFKGRATLTADTSSSTAYMQLSSLTSEDSAVYFCARSITTVVGCAMDYWGQGTSVTVSSTRIQNPDPAVYQLRDSKSSDKSVCLFTDFDSQTNVSQSKDSDVYITDKCVLDMRSMDFKSNSAVAWSNKSDFACANAFNNSIIPEDTFFPSPESSCDVKLVEKSFETDTNLNFQNLSVIGFRILLLKVAGFNLLMTLRLWSSRAKRSGSGVKQTLNFDLLKLAGDVESNPGPSRGHMTEYKPTVRLATRDDVPRAVRTLAAAFADYPATRHTVDPDRHIERVTELQELFLTRVGLDIGKVWVADDGAAVAVWTTPESVEAGAVFAEIGPRMAELSGSRLAAQQQMEGLLAPHRPKEPAWFLATVGVSPDHQGKGLGSAVVLPGVEAAERAGVPAFLETSAPRNLPFYERLGFTVTADVEVPEGPRTWCMTRKPGA

Assays:
Format in all cases: cell-based
RAJI-CD19-KO cells = test: JNG assay, co-culture with RAJI-CD19-KO cells; conditions: co-culture with Raji-CD19-KO
In short: (§1)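 Jurkat NFAT-GFP (JNG) cells stably transduced with SARs by lentivirus, with drug selection where the construct carried a resistance gene, then co-cultured with target cells at E:T ~1:2 for ~4–18 h. % GFP-positive cells measured by FACS against parental JNG; +/- to 5+ correspond to ~5–50% GFP-positive.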

RAJI cells = test: JNG assay, co-culture with RAJI cells; conditions: JNG cells expressing construct, co-culture with Raji
In short: as §1

Nalm6 cells = test: JNG assay, co-culture with Nalm6 cells; conditions: co-culture with Nalm6
In short: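 SAR-JNG (lentiviral spinfection, drug-selected) + target cells, E:T ≈1:2, ≈4–18 h; FACS for GFP; positivity = %GFP+ over parental JNG; grades +/- to 5+ ≈ 5–50% GFP+.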

RS;411 = test: JNG assay, co-culture with RS;411 cells; conditions: co-culture with RS411
Procedure: Cellular supernatant is collected and assayed for the induction of cytokines (e.g., IL2).
JNG (Jurkat cells expressing EGFP under an NFAT promoter) were infected with lentiviral vectors encoding different single chain and multi-chain SARs by spinfection in the presence of 8 µg/ml of Polybrene® (Sigma, Catalog no. H9268). The Jurkat-NFAT-GFP cells are engineered in such a way that the IL-2 promoter, which carries NFAT binding sites, is cloned upstream of the GFP gene. These cells have been used to study signaling via TCR and CAR. The different SARs were stably expressed in Jurkat NFAT-GFP cells by lentiviral mediated gene transfer, followed by selection with puromycin or blasticidin. No drug selection was used in case the construct lacked an antibiotic resistance gene. The SAR-expressing Jurkat-NFAT-GFP cells were cocultured with the target cells at E:T ratio of approximately 1:2 for approximately 4 hours to 18 hours. When the interaction between SIRs and their target antigen results in activation of the NFAT pathway, GFP expression is induced. […] GFP expression was monitored by FACS analysis. The Jurkat-NFAT-GFP (parental) cells were used as control. The structure of different constructs can be determined based on their names. […] The sequence of the other constructs in the table can be similarly determined from their names and by referring to the different Tables of this disclosure that provide the names and SEQ ID NO of the different modules. Alternatively, the composition and modular architecture of the different SAR constructs can be determined from their sequences by bioinformatics tools, including using nucleic acid and amino acids homology searches. A SAR is considered positive in the assay in case the SAR expressing Jurkat-NFAT-GFP cells show greater % GFP positive cells when cultured with the target cell line as compared to parental Jurkat-NFAT-GFP cells. […] In general, the number +/-, +, 2+, 3+, 4+, 5+ refer to approximately 5%, 10%, 20%, 30%, 40% and 50% GFP positive cells. The % of GFP induction in the above assay is dependent not only the relative strength of the SAR but also, among other factors, on the relative level of expression of the SAR in the JNG cells and the relative level of expression of the target antigen in the target cell line. To control for the difference in gene transduction efficiency of the different SAR constructs, the experiment was conducted with JNG cells transduced with SAR constructs co-expressing a drug resistance gene (e.g., puromycin or PAC) followed by drug selection to generate a stable population of SAR-expressing cells. It is to be noted that the drug resistance gene (e.g., PAC) in the SAR constructs is optional and in vivo studies were conducted with SAR constructs lacking the PAC gene.

Molecule	NFAT-GFP ASSAY: Raji-CD19-KO (RAJI-CD19-KO cells)	NFAT-GFP ASSAY: Raji (RAJI cells)	NFAT-GFP ASSAY: Nalm6 (Nalm6 cells)	NFAT-GFP ASSAY: RS411 (RS;411)
B1	+/- (refer to approximately 5%, 10%, 20%, 30%, 40% and 50% GFP positive cells)	+/- (refer to approximately 5%, 10%, 20%, 30%, 40% and 50% GFP positive cells)	+/- (refer to approximately 5%, 10%, 20%, 30%, 40% and 50% GFP positive cells)	
B2				2+ (refer to approximately 5%, 10%, 20%, 30%, 40% and 50% GFP positive cells)
B3		2+ (refer to approximately 5%, 10%, 20%, 30%, 40% and 50% GFP positive cells)		2+ (refer to approximately 5%, 10%, 20%, 30%, 40% and 50% GFP positive cells)
B4	4+ (refer to approximately 5%, 10%, 20%, 30%, 40% and 50% GFP positive cells)		5+ (refer to approximately 5%, 10%, 20%, 30%, 40% and 50% GFP positive cells)	
